Data as given in patent publication US20130273052A1.

Key:
[1] = molecular target: human complement component C5 protein (human); assay: cell-based or functional assay
[2] = molecular target: human complement component C5 protein (human); assay: Biacore 3000 SPR, scFv immobilised on CM5 chip, C5 0.1875-24 nM as analyte, 25 C, 1:1 Langmuir model
[3] = molecular target: R38Q scFv (variant of the anti-C5 single chain antibody pexelizumab); assay: Biacore SPR self-association, R38Q scFv immobilised on CM5 chip, R38Q scFv 0.6-75 µM as analyte; poor fit to the Langmuir model

“R38Q scFv (variant of the anti-C5 single chain antibody pexelizumab)” gave an inhibition of chicken erythrocyte hemolysis in about 10% normal human serum (absorbance at 415 nm), IC50 [1] of 2 µg/mL, a Kd [2] of 0.000108 µM and a koff [2] of 6.06e-05 s⁻¹. It also gave a kon [2] of 559000 M⁻¹ s⁻¹, a Kd [3] of 32 µM and a koff [3] of 0.0107 s⁻¹. The kon [3] was 334 M⁻¹ s⁻¹.
